Results reported in IntAct's records for PubMed 21751375.

What was measured:
ctnb1_human CTNNB1 = ctnb1_human CTNNB1 (UniProt P35222)
ctnb1_mouse Ctnnb1 = ctnb1_mouse Ctnnb1 (UniProt Q02248)
ctnb1_mouse Ctnnb1, sequence (Q02248 whole entry): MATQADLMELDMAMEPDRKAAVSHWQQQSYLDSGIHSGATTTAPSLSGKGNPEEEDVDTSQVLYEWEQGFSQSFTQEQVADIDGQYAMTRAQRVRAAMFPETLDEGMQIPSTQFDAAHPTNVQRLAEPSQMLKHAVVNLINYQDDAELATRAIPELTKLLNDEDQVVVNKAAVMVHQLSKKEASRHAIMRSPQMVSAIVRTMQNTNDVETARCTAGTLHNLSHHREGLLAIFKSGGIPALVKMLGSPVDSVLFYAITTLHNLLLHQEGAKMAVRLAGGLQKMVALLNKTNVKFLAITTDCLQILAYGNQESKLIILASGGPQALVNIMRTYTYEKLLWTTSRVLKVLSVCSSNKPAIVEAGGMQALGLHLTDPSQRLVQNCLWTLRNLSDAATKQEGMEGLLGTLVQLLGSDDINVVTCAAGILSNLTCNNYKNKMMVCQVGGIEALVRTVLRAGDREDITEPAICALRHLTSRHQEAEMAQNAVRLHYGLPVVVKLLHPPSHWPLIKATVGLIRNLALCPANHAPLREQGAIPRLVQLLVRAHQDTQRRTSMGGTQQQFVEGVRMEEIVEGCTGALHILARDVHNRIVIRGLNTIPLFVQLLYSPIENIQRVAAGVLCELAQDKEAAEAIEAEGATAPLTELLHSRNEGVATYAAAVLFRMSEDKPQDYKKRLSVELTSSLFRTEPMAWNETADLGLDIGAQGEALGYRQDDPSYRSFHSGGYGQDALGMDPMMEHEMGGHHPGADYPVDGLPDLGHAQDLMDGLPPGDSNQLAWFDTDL

ctnb1_human CTNNB1, sequence (P35222 whole entry): as the sequence (Q02248 whole entry) above, with A706P counted along it

| Substance | effect of a mutation on the interaction (ctnb1_human CTNNB1) | effect of a mutation on the interaction (ctnb1_mouse Ctnnb1) |
| --- | --- | --- |
| CREB-binding protein (Homo sapiens), Q92793 S92A | decreasing interaction |  |
| Histone lysine acetyltransferase CREBBP (Mus musculus), P45481 S92A |  | decreasing interaction |
